Source: paper PMC5291270

T1: Flag-SA1 WT (UniProt Q8WVM7)
T1 sequence: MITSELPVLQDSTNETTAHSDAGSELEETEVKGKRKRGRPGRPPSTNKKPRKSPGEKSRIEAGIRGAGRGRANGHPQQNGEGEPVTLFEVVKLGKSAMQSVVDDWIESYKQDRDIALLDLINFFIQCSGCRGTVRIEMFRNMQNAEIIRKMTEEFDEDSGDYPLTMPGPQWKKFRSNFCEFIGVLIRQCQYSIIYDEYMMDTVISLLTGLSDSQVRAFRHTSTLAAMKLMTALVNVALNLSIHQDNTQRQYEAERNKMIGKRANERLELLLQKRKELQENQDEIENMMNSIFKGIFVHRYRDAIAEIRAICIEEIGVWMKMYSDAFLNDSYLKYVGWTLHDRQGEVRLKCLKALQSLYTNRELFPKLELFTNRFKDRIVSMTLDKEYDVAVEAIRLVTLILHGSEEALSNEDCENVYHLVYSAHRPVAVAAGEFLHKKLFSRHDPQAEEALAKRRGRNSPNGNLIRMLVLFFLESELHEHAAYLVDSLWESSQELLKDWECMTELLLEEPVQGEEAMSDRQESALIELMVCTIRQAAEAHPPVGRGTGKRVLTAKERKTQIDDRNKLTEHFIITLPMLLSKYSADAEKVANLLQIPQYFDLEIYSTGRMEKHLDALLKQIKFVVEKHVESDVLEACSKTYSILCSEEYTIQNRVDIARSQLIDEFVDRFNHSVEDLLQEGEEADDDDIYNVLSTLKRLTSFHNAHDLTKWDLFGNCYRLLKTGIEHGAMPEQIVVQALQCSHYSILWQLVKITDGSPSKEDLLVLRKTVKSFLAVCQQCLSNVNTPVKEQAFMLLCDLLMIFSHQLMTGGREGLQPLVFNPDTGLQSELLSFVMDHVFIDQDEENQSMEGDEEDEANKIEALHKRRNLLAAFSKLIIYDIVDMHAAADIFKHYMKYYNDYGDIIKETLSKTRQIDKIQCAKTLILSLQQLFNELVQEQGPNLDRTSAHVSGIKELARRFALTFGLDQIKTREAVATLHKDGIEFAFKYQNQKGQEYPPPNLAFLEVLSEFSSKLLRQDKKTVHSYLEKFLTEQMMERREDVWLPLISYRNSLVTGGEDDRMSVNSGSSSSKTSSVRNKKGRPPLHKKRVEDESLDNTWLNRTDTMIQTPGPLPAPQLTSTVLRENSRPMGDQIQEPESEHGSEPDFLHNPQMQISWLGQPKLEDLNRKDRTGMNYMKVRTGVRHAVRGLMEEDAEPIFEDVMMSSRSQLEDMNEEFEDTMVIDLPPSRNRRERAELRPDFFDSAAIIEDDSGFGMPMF

T2: Flag-SA1 WT (UniProt Q8WVM7 1-1258)
T2 sequence: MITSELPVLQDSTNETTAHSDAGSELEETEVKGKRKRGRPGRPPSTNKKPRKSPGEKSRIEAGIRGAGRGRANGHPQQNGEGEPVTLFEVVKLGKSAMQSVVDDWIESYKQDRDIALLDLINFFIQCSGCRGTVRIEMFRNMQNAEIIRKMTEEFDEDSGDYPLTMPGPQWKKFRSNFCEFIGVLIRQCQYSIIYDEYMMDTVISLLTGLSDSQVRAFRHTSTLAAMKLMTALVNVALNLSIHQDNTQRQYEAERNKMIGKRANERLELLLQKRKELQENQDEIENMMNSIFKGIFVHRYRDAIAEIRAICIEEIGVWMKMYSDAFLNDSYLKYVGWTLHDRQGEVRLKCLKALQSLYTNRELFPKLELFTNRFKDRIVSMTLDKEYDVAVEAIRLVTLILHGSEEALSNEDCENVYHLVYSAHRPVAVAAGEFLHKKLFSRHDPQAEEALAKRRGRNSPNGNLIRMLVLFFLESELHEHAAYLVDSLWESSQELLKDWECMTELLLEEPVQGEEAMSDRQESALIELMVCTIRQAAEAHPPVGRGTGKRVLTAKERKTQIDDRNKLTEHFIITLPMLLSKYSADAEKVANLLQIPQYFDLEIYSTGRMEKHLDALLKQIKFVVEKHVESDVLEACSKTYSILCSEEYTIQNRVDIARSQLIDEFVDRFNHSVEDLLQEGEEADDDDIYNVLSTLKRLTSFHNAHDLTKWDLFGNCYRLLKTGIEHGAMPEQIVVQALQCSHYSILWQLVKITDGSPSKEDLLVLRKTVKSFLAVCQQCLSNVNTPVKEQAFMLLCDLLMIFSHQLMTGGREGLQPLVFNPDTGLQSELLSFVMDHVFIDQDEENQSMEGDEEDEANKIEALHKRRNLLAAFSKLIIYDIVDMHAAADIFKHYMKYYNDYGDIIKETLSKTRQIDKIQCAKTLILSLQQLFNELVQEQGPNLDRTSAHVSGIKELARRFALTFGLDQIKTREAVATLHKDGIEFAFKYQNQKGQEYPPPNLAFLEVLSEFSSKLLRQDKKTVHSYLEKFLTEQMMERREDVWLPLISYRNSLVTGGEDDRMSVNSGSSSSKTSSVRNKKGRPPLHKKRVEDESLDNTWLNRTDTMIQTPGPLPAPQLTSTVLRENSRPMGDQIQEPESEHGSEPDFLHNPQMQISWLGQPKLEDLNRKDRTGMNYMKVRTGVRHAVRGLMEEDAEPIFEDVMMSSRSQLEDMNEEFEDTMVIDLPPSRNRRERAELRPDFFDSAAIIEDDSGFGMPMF

B1: Tel7 (7 TTAGGG repeats) (dsDNA)
DNA 1: CTGGATCCGTACTTAGGGTTAGGGTTAGGGTTAGGGTTAGGGTTAGGGTTAGGGACAAGAATTCGA
DNA 2: TCGAATTCTTGTCCCTAACCCTAACCCTAACCCTAACCCTAACCCTAACCCTAAGTACGGATCCAG
B2: Scram (scrambled Tel7) (dsDNA)
DNA 1: CTGGATCCGTACAGTGTAAGGGTGAGTGGTTGGGTGTGTGGGTGTTGATGTAGAACAAGAATTCGA
DNA 2: TCGAATTCTTGTTCTACATCAACACCCACACACCCAACCACTCACCCTTACACTGTACGGATCCAG
B3: 3x TTAGGG EMSA duplex (dsDNA)
DNA 1: TTAGGGTTAGGGTTAGGGATGTCCAGCAAGCCAGAATTCGGCAGCGTA
DNA 2: TACGCTGCCGAATTCTGGCTTGCTGGACATCCCTAACCCTAACCCTAA

What was measured:
Flag-SA1 WT [1] = molecular target: T1, Flag-SA1 WT; experiment: AFM; details: scale: % of SA1 bound at same locations as telomeric region
Flag-SA1 WT [2] = molecular target: T2, Flag-SA1 WT; experiment: fluorescence anisotropy
[3] = molecular target: TRF1;SA1 (EMSA with TRF1) (human?;human?, UniProt P54274;Q8WVM7 1-439;1-1258, |); experiment: EMSA
Sequence of TRF1;SA1 (EMSA with TRF1) (P54274 whole entry, one chain of several): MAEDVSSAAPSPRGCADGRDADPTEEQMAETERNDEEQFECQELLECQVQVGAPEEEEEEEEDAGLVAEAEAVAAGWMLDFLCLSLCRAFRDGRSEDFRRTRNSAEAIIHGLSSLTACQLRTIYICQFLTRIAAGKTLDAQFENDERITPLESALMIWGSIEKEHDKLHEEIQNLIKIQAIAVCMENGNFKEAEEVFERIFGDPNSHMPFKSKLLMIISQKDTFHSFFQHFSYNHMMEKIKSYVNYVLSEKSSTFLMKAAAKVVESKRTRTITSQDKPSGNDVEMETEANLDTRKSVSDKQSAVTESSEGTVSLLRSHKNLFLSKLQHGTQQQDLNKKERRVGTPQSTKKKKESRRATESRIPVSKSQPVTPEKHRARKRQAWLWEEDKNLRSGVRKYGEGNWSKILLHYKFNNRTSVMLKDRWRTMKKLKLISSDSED

Row | Molecule | Kd (Flag-SA1 WT [2]) [nM] | further results
1 | genomic control DNA |  | binding signal (Flag-SA1 WT [1]): 27
2 | B1 | 34 ± 5.8 | 
3 | B2 | 104 ± 13.6 | 
4 | B3 |  | binding result [3]: binds
